± gives the standard deviation of the averaged measurements.
Tested on: ATP
Experiment: switch fluorescence ratio, 500 uM ATP over buffer (Cy3 cluster intensity, sum of 5 cycles each) (fold (ratio)); higher = stronger signal-on switching upon ATP binding; sequences stand for … in TCGTCGGCAGCGTCAGATGTGTATAAGAGACAGTTTTTTTTTTTTTTTTTTTTTTTTT…TC
Conditions: aptamer strand: ATP DNA aptamer (quencher-CACCTGGGGGAGTATTGCGGAGGAAGG + anchor), 100 nM annealed; ATP concentration: 500 uM
Procedure, shortened: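 The fluorescence ratio divides summed target-cycle Cy3 intensity by summed buffer-cycle Cy3 intensity for each cluster and is averaged per switch-domain sequence. Cy3-labelled switching-strand clusters on a modified Illumina MiSeq flow-cell were annealed to 100 nM quencher-labelled ATP aptamer, then imaged in selection buffer and again after 15 min with 500 uM ATP at 22 °C. Five such cycles were run, with NaOH stripping and re-annealing between them, and clusters outside 100-1000 RFU were excluded.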
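Also: ATP exposure 15 min at 22 °C before imaging.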

Sequence	switch fluorescence ratio
CATGGTTGCG	0.987 ± 0.022
CATGGTTTTT	0.9989 ± 0.0082
CATGTAGGTG	1.06 ± 0.048
CATGTAGTCT	1.04 ± 0.013
CATGTAGTGC	1.03 ± 0.089
CATGTCGGTT	0.991 ± 0.019
CATGTGTTTG	0.993 ± 0.014
CATGTTGCGA	1.04 ± 0.023
CATGTTTGCC	1.02 ± 0.015
CATGTTTGTG	0.982 ± 0.023
CATGTTTTTT	0.987 ± 0.024
CATTAAGTCT	1.02 ± 0.036
CATTAATAGT	0.98 ± 0.031
CATTACAACA	1.02 ± 0.059
CATTACGCCG	1.11 ± 0.042
CATTACGGCG	0.995 ± 0.043
CATTAGACAT	0.994 ± 0.026
CATTAGAGGG	0.988 ± 0.031
CATTAGGGTC	0.932 ± 0.019
CATTAGTCGT	0.996 ± 0.013
CATTAGTTGT	1.02 ± 0.011
CATTAGTTTC	1 ± 0.028
CATTATACAT	1.01 ± 0.023
CATTATAGAT	0.997 ± 0.021
CATTATAGCG	0.991 ± 0.023

Sequence	switch fluorescence ratio
CATTATGTGC	0.981 ± 0.027
CATTATGTTG	0.969 ± 0.036
CATTATTTAG	1.01 ± 0.033
CATTATTTGG	1.003 ± 0.002
CATTATTTTT	1.01 ± 0.024
CATTCATGTT	0.985 ± 0.024
CATTCATTGA	0.998 ± 0.049
CATTCGATGC	1.265 ± 0.0044
CATTCGCTTT	1.88 ± 0.036
CATTCGTAGG	0.965 ± 0.042
CATTCTAAAG	1.02 ± 0.011
CATTCTACGT	1.04 ± 0.018
CATTCTATGC	1.03 ± 0.011
CATTCTCAAT	1.17 ± 0.056
CATTGAAATT	0.968 ± 0.032
CATTGAGGGC	0.987 ± 0.021
CATTGCATTT	1.3 ± 0.4
CATTGCTATT	1.02 ± 0.017
CATTGGACGT	1.029 ± 0.0063
CATTGGGTG	1.05 ± 0.018
CATTGGGTGT	1.03 ± 0.0098
CATTGTGACT	1 ± 0.016
CATTGTGCCT	1.04 ± 0.018
CATTGTGTGA	0.994 ± 0.021
CATTGTGTTT	0.9707 ± 0.0029

Sequence	switch fluorescence ratio
CATTTAAGTC	0.995 ± 0.023
CATTTACGCT	1.03 ± 0.014
CATTTAGTAT	1.01 ± 0.013
CATTTATTCT	0.9615 ± 0.0021
CATTTATTGT	0.992 ± 0.018
CATTTCAAGG	1 ± 0.043
CATTTGCTCT	1 ± 0.013
CATTTGGATG	1.02 ± 0.013
CATTTGGCGT	0.972 ± 0.029
CATTTGGGGG	0.977 ± 0.025
CATTTGGTCG	0.955 ± 0.13
CATTTTAATA	1.01 ± 0.021
CATTTTGTAG	1.039 ± 0.0043
CATTTTTGAA	1.006 ± 0.0066
CATTTTTGTG	0.9534 ± 0.0061
CATTTTTTAG	1.01 ± 0.016
CCAAAATTGA	1 ± 0.014
CCAAACTTAG	1.02 ± 0.027
CCAAAGAGGG	0.993 ± 0.02
CCAAAGCTAG	2.1 ± 0.028
CCAAATCAGA	0.986 ± 0.021
CCAACGGTCT	1.04 ± 0.0012
CCAAGAGGAC	1 ± 0.027
CCAAGATGTG	0.997 ± 0.01
CCAAGCGGTA	1.3 ± 0.026

Sequence	switch fluorescence ratio
CCAAGGGATG	0.967 ± 0.018
CCAAGGGGAG	0.988 ± 0.037
CCAAGGGGTT	1.01 ± 0.03
CCAATAGAGT	0.997 ± 0.046
CCAATATAGC	1.21 ± 0.016
CCAATATTCG	1.09 ± 0.056
CCAATGAGGT	0.9962 ± 0.0084
CCAATGATAA	1.014 ± 0.0034
CCAATTGCGC	1.03 ± 0.031
CCAATTTGCT	1.02 ± 0.056
CCACCTTAAG	1.04 ± 0.033
CCACGAAGAT	1.061 ± 0.0037
CCACGCCAGG	2.79 ± 0.084
CCACGCCCGG	1.15 ± 0.099
CCACGCCTGT	1.09 ± 0.022
CCACTATTCT	1.001 ± 0.0062
CCACTTTCCT	1.2 ± 0.021
CCAGAAGGGT	0.974 ± 0.02
CCAGACACAC	1.45 ± 0.018
CCAGACAGC	1.01 ± 0.052
CCAGACCAGT	1.011 ± 0.0024
CCAGAGGAAT	1.043 ± 0.0079
CCAGAGGGGG	0.985 ± 0.067
CCAGAGGGGT	1.04 ± 0.02
CCAGAGTGTT	1.33 ± 0.04

Sequence	switch fluorescence ratio
CCAGCCTTTT	1.025 ± 0.0039
CCAGCTACGG	1.06 ± 0.053
CCAGCTGTAT	1.04 ± 0.0024
CCAGCTTTTT	0.957 ± 0.054
CCAGGAATAA	1.11 ± 0.14
CCAGGAGTGT	1.08 ± 0.012
CCAGGCTCTG	0.993 ± 0.006
CCAGGGGCGC	1.04 ± 0.017
CCAGGGGCGG	1.067 ± 0.002
CCAGGGGCGT	1.393 ± 0.012
CCAGGGGTCC	2.93 ± 2.4
CCAGGGTTGG	1.04 ± 0.048
CCAGGTAGCA	1.27 ± 0.12
CCAGGTATGG	1.05 ± 0.013
CCAGGTCATA	1.07 ± 0.011
CCAGGTCCGC	1.455 ± 0.0073
CCAGTATGTG	1.04 ± 0.054
CCAGTCTGTA	0.9492 ± 0.0057
CCAGTGATGG	1 ± 0.042
CCAGTGGTTT	1.01 ± 0.012
CCATAAACTA	1.01 ± 0.066
CCATAACTTA	0.9782 ± 0.0033
CCATAAGAAT	1.01 ± 0.038
CCATACAGTT	1.01 ± 0.021
CCATAGGTCC	1.017 ± 0.0071

Sequence	switch fluorescence ratio
CCATAGTTTG	0.993 ± 0.018
CCATATCGTT	0.997 ± 0.01
CCATATTCTC	1.016 ± 0.0072
CCATCTATCG	1.03 ± 0.026
CCATCTCTGG	0.979 ± 0.022
CCATGCACTG	1.017 ± 0.0028
CCATGCCGGG	0.979 ± 0.052
CCATGGGCGA	1.1 ± 0.02
CCATGGGGCT	1.29 ± 0.46
CCATGGGTTC	1.0016 ± 0.00068
CCATGGTTAT	1.026 ± 0.0034
CCATGTTGCT	0.9612 ± 0.0059
CCATTAAACT	1.014 ± 0.008
CCATTAGCAT	2.12 ± 0.2
CCATTATATC	1.01 ± 0.047
CCATTCTTCG	1.08 ± 0.028
CCATTGACGG	1.04 ± 0.02
CCATTGCACG	1.16 ± 0.12
CCATTGCTCG	1.04 ± 0.05
CCATTGTAGC	1.03 ± 0.024
CCATTTAGTT	1.09 ± 0.12
CCATTTCTTG	0.9906 ± 0.0095
CCATTTTTTT	0.997 ± 0.042
CCCAAAGCGG	1.09 ± 0.032
CCCAAAGGGG	1.04 ± 0.04

Sequence	switch fluorescence ratio
CCCAATTTTG	1.05 ± 0.069
CCCAGATTAA	1.01 ± 0.085
CCCAGGGGA	1.91 ± 1
CCCAGTGGGA	2.25 ± 1.7
CCCATACTGA	1.11 ± 0.036
CCCATAGTAT	1.01 ± 0.058
CCCCACTTGC	1.32 ± 0.11
CCCCAGGAAT	1.24 ± 0.027
CCCCATTTTT	1.06 ± 0.067
CCCCGGATTT	1.09 ± 0.098
CCCCGTTAGT	1.01 ± 0.08
CCCCTTGCTC	1.47 ± 0.058
CCCCTTGGGG	1.036 ± 0.0031
CCCCTTGTGT	2.087 ± 0.015
CCCGACAGCC	1.97 ± 0.3
CCCGAGGGTT	1.01 ± 0.017
CCCGGGGCTA	1.08 ± 0.036
CCCGGGGGGG	1.1 ± 0.13
CCCGGGGTAC	2.969 ± 0.027
CCCGGGGTAT	1.06 ± 0.057
CCCGGGGTCT	1.02 ± 0.026
CCCGGGTCGC	1.05 ± 0.012
CCCGGTACGG	1.029 ± 0.0017
CCCGGTGTGT	1.65 ± 0.025
CCCGGTTGAT	1.047 ± 0.0074

Sequence	switch fluorescence ratio
CCCGTATACT	3.22 ± 1.6
CCCGTCAGCG	1.02 ± 0.041
CCCGTGCTTC	1.07 ± 0.063
CCCGTGGAAA	1.09 ± 0.1
CCCTCCTTG	1.0791 ± 6.3e-05
CCCTGGCAGC	1.3 ± 0.019
CCCTTAGGGA	1.02 ± 0.026
CCCTTGATAC	2.24 ± 0.1
CCCTTTAGGG	1.025 ± 0.0025
CCGAAAAGAT	1.44 ± 0.59
CCGAAAGCCG	1.11 ± 0.024
CCGAAATGGG	1.5 ± 0.07
CCGAACTTTT	1.07 ± 0.075
CCGAAGAGTC	1.66 ± 0.28
CCGAATTGTA	1.03 ± 0.016
CCGACCAGGG	1.3 ± 0.13
CCGACTAAAA	4.27 ± 0.41
CCGAGAAAAA	1.12 ± 0.14
CCGAGAATCG	1.02 ± 0.036
CCGAGCGGGA	1.77 ± 0.37
CCGAGGGGGT	1.81 ± 1.1
CCGATGGGCC	1.22 ± 0.028
CCGATTGTGT	1.11 ± 0.017
CCGCAGAGTG	3.98 ± 2.1
CCGCCAGGTC	2.55 ± 0.13

From the supplement of paper PMC10126150
